In patent publication US20160143998A1 (Novo Nordisk, published 2016):
*1 amine or outer side, *2 acyl side, *3 side chain or, on linkers, in order; H or OH if unused. Where no end group is shown, it is not given here. Side-chain parts run from the residue outwards. [ ]: non-standard residue; d: D form. The star is where a group is joined. code 2xAEEA = O=C(COCCOCCN[*:1])NCCOCCOCC(=O)[*:2]; C20 diacid = O=C(O)CCCCCCCCCCCCCCCCCCC(=O)*; γGlu = O=C(O)[C@H](CCC(=O)[*:2])N[*:1]; Desaminohistidyl = O=C(CCc1c[nH]cn1)*; Trx = NC[C@H]1CC[C@H](C(=O)O)CC1; code LysOEG = not defined here; Lys(Bis) = not defined here; AEEA = NCCOCCOCC(=O)O; Aib = CC(C)(N)C(=O)O

Tests used:
human GLP-1 receptor [1] = target: T1, human GLP-1 receptor (human, UniProt P43220 24-463); assay: cell-based or functional assay
human GLP-1 receptor [2] = target: T1, human GLP-1 receptor; assay: SPA competition vs 125I-GLP-1(7-36)NH2, hGLP-1R BHK membranes, low HSA
Experimental: (§1) For the receptor binding assay in the presence of low HSA (0.005%) 50 μl of the assay buffer was added to each well of an assay plate. […] For the receptor binding assay in the presence of high HSA (2%) 50 μl of the 8% albumin stock was added to each well of an assay plate. […] Cell membrane aliquots were thawed and diluted to their working concentration. Fifty μl were added to each well in the assay plate. […] WGA SPA beads were suspended in assay buffer at 20 mg/ml. The suspension was diluted to 10 mg/ml in assay buffer just prior to addition to the assay plate. Fifty μl were added to each well in the assay plate. […] A 25 μl aliquot was reserved for measuring total counts/well. […] The assay plate was incubated for 2 h at 30° C. […] The assay plate was centrifuged for 10 min. […] The assay plate was read in a Packard TopCount NXT instrument.

human GLP-1 receptor [3] = target: T1, human GLP-1 receptor; assay: SPA competition vs 125I-GLP-1(7-36)NH2, hGLP-1R BHK membranes, high HSA (2.0%)
Experimental: as §1

Row | Binder | EC50 (pM), in vitro potency, CRE luciferase reporter gene assay in BHK cells expressing the human GLP-1 receptor (human GLP-1 receptor [1]) [pM] | IC50 (human GLP-1 receptor [2]) [nM] | IC50 (human GLP-1 receptor [3]) [nM]
1 | H[Aib]EGTFTSDVSSYLEEQAAREFIAWLVRGRGGGGSK([code LysOEG-AEEA-γGlu-Trx-C20 diacid)(OEG-AEEA-γGlu-Trx-C20 diacid]) (reading uncertain, Side chain read from the name: eps-Lys(Bis) branched linker, each leg C20 diacid-Trx-gGlu-2xOEG) | 94 | 1.64 | 175
2 | H[Aib]EGTFTSDVSSYLEEQAAREFIAWLVRGRGSSGAPK([Lys(Bis)-code 2xAEEA-AEEA-γGlu-Trx-C20 diacid]) (reading uncertain, Side chain read from the name: eps-Lys(Bis) branched linker, each leg C20 diacid-Trx-gGlu-2xOEG) | 99 | 0.99 | 28
3 | H[Aib]EGTFTSDVSSYLEEQAAREFIAWLVRGRGSSAEGK([Lys(Bis)-code 2xAEEA-AEEA-γGlu-Trx-C20 diacid]) (reading uncertain, Side chain read from the name: eps-Lys(Bis) branched linker, each leg C20 diacid-Trx-gGlu-2xOEG) | 12 | 3.2 | 63
4 | H[Aib]EGTFTSDVSSYLEEQAAREFIAWLVRGRGSSEAEK([Lys(Bis)-code 2xAEEA-AEEA-γGlu-Trx-C20 diacid]) (reading uncertain, Side chain read from the name: eps-Lys(Bis) branched linker, each leg C20 diacid-Trx-gGlu-2xOEG) | 19 | 3.1 | 85
5 | H[Aib]EGTFTSDVSSYLEEQAAREFIAWLVRGRGSSPAAK([Lys(Bis)-code 2xAEEA-AEEA-γGlu-Trx-C20 diacid]) (reading uncertain, Side chain read from the name: eps-Lys(Bis) branched linker, each leg C20 diacid-Trx-gGlu-2xOEG) | 22 | 4.8 | 51
6 | H[Aib]EGTFTSDVSSYLEEQAAREFIAWLVRGRGK (not fully specified (residue 32); printed as N{Alpha}([Aib8,Glu22,Arg26,Arg34]-GLP-1-(7-37)-peptidyl)-N{Epsilon}[(2S)-2,6-bis[[2-[2-[2-[[2-[2-[2-[[(4S)-4-carboxy-4-[[1-(19-carboxynonadecanoyl)piperidine-4-carbonyl]amino]butanoyl]amino]ethoxy]ethoxy]acetyl]amino]ethoxy]ethoxy]acetyl]amino]hexanoyl]Lys, Side chain read from the name: eps-Lys(Bis) branched linker, each leg C20 diacid-Inp-gGlu-2xOEG) | 55 | 0.76 | 68
7 | H[Aib]EGTFTSDVSSYLEEQAAREFIAWLVRGRGGGSK([code LysOEG-AEEA-γGlu-Trx-C20 diacid)(OEG-AEEA-γGlu-Trx-C20 diacid]) (reading uncertain; also: printed as [Aib8,Glu22,Arg26,Arg34]-GLP-1-(7-37)-peptidyl-Gly-Gly-Ser-N{Epsilon}[(2S)-2,6-bis[[2-[2-[2-[[2-[2-[2-[[(4S)-4-carboxy-4-[[4-[(19-carboxynonadecanoylamino)methyl]cyclohexanecarbonyl]amino]butanoyl]amino]ethoxy]ethoxy]acetyl]amino]ethoxy]ethoxy]acetyl]amino]hexanoyl]Lys, Side chain read from the name: eps-Lys(Bis) branched linker, each leg C20 diacid-Trx-gGlu-2xOEG) | 87 | 1.93 | 59
8 | H[Aib]EGTFTSDVSSYLEEQAAREFIAWLVRGRGAEAPK([code LysOEG-AEEA-γGlu-Trx-C20 diacid)(OEG-AEEA-γGlu-Trx-C20 diacid]) (reading uncertain, Side chain read from the name: eps-Lys(Bis) branched linker, each leg C20 diacid-Trx-gGlu-2xOEG) | 13 | 1.7 | 27
9 | H[Aib]EGTFTSDVSSYLEEQAAREFIAWLVRGRGEPPGK([code LysOEG-AEEA-γGlu-Trx-C20 diacid)(OEG-AEEA-γGlu-Trx-C20 diacid]) (reading uncertain, Side chain read from the name: eps-Lys(Bis) branched linker, each leg C20 diacid-Trx-gGlu-2xOEG) | 15 | 2.9 | 50
10 | H[Aib]EGTFTSDVSSYLEEQAAREFIAWLVRGRGPAEEK([Lys(Bis)-code 2xAEEA-AEEA-γGlu-Trx-C20 diacid]) (reading uncertain, Side chain read from the name: eps-Lys(Bis) branched linker, each leg C20 diacid-Trx-gGlu-2xOEG) | 14 | 2.9 | 68
11 | H[Aib]EGTFTSDVSSYLEEQAAREFIAWLVRGRGGSK([code LysOEG-AEEA-γGlu-Trx-C20 diacid)(OEG-AEEA-γGlu-Trx-C20 diacid]) (reading uncertain; also: printed as [Aib8,Glu22,Arg26,Arg34]-GLP-1-(7-37)-peptidyl-Gly-Ser-N{Epsilon}[(2S)-2,6-bis[[2-[2-[2-[[2-[2-[2-[[(4S)-4-carboxy-4-[[4-[(19-carboxynonadecanoylamino)methyl]cyclohexanecarbonyl]amino]butanoyl]amino]ethoxy]ethoxy]acetyl]amino]ethoxy]ethoxy]acetyl]amino]hexanoyl]Lys, Side chain read from the name: eps-Lys(Bis) branched linker, each leg C20 diacid-Trx-gGlu-2xOEG) | 51 | 0.74 | 25
12 | [Desaminohistidyl][Aib]EGTFTSDVSSYLEEQAAREFIAWLVRGRGGK([Lys(Bis)-code 2xAEEA-AEEA-AEEA-AEEA-γGlu-Trx-C20 diacid]) (reading uncertain; also: printed as [Imp7,Aib8,Glu22,Arg26,Arg34]-GLP-1-(7-37)-peptidyl-Gly-N{Epsilon}[(2S)-2,6-bis[[2-[2-[2-[[2-[2-[2-[[2-[2-[2-[[2-[2-[2-[[(4S)-4-carboxy-4-[[4-[(19-carboxynonadecanoylamino)methyl]cyclohexanecarbonyl]amino]butanoyl]amino]ethoxy]ethoxy]acetyl]amino]ethoxy]ethoxy]acetyl]amino]ethoxy]ethoxy]acetyl]amino]ethoxy]ethoxy]acetyl]amino]hexanoyl]Lys, Side chain read from the name: eps-Lys(Bis) branched linker, each leg C20 diacid-Trx-gGlu-4xOEG) | 16 | 0.91 | 54
13 | H[Aib]EGTFTSDVSSYLEEQAAREFIAWLVRGRGK([code LysOEG-AEEA-γGlu-Trx-C20 diacid)(OEG-AEEA-γGlu-Trx-C20 diacid]) (reading uncertain; also: printed as N{Alpha}([Aib8,Glu22,Arg26,Arg34]-GLP-1-(7-37)-peptidyl)-N{Epsilon}[(2S)-2,6-bis[[2-[2-[2-[[2-[2-[2-[[(4S)-4-carboxy-4-[[4-[(19-carboxynonadecanoylamino)methyl]cyclohexanecarbonyl]amino]butanoyl]amino]ethoxy]ethoxy]acetyl]amino]ethoxy]ethoxy]acetyl]amino]hexanoyl]Lys, Side chain read from the name: eps-Lys(Bis) branched linker, each leg C20 diacid-Trx-gGlu-2xOEG) | 70 | 0.9 | 78
14 | H[Aib]EGTFTSDVSSYLEEQAAREFIAWLVRGRPK([code LysOEG-AEEA-AEEA-AEEA-AEEA-AEEA-γGlu-Trx-C20 diacid)(OEG-AEEA-AEEA-AEEA-AEEA-AEEA-γGlu-Trx-C20 diacid]) (reading uncertain, Side chain read from the name: eps-Lys(Bis) branched linker, each leg C20 diacid-Trx-gGlu-6xOEG) | 12 | 0.57 | 84
15 | H[Aib]EGTFTSDVSSYLEEQAAREFIAWLVRGRGSK([Lys(Bis)-code 2xAEEA-AEEA-γGlu-Trx-C20 diacid]) (reading uncertain; also: printed as [Aib8,Glu22,Arg26,Arg34]-GLP-1-(7-37)-peptidyl-Ser-N{Epsilon}[(2S)-2,6-bis[[2-[2-[2[[2-[2-[2-[[(4S)-4-carboxy-4-[[4-[(19-carboxynonadecanoylamino)methyl]cyclohexanecarbonyl]amino]butanoyl]amino]ethoxy]ethoxy]acetyl]amino]ethoxy]ethoxy]acetyl]amino]hexanoyl]Lys, Side chain read from the name: eps-Lys(Bis) branched linker, each leg C20 diacid-Trx-gGlu-2xOEG) | 44 | 0.61 | 83
16 | H[Aib]EGTFTSDVSSYLEEQAAREFIAWLVRGRGK([code LysOEG-AEEA-γGlu-C20 diacid)(OEG-AEEA-γGlu-C20 diacid]) (reading uncertain; also: printed as N{Alpha}([Aib8,Glu22,Arg26,Arg34]-GLP-1-(7-37)-peptidyl)-N{Epsilon}[(2S)-2,6-bis[[2-[2-[2-[[2-[2-[2-[[(4S)-4-carboxy-4-(19-carboxynonadecanoylamino)butanoyl]amino]ethoxy]ethoxy]acetyl]amino]ethoxy]ethoxy]acetyl]amino]hexanoyl]Lys, Side chain read from the name: eps-Lys(Bis) branched linker, each leg C20 diacid-gGlu-2xOEG) | 25 | 0.45 | 64
